We go through three molecules from patent US20220041711A1 (NGM BIOPHARMACEUTICALS, published 2022).

Test [1] addresses T1, MSR1 expressed on transfected 293T cells (UniProt P21757 1-451, limits assumed).
T1 construct: whole, on cells
T1 sequence (looked up): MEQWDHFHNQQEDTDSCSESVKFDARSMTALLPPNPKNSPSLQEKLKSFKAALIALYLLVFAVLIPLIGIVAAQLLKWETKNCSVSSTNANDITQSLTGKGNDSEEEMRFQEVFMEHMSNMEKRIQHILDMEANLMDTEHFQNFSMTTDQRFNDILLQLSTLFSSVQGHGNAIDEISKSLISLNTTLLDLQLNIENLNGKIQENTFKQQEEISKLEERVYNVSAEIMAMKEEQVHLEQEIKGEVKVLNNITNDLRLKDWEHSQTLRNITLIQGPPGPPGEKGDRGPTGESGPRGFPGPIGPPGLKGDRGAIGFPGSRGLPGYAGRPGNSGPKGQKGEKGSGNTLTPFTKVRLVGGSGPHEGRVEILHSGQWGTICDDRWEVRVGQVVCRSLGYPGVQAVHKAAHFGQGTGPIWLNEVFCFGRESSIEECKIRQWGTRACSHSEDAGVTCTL
The test is described as follows: flow cytometry on 293T-MSR1 cells, Alexa647 anti-mouse IgG secondary.

Test [2] deals with T2, COL13A1 expressed on transfected 293T cells (UniProt Q5TAT6 1-717, limits assumed).
T2 construct: whole, on cells
The test is described as follows: IHC on 293T-transfected cell pellets; '-' = no detectable signal.

Test [3] addresses T3, human MARCO (form in the assay not stated) (human, UniProt Q9UEW3 79-520, limits assumed).
T3 sequence: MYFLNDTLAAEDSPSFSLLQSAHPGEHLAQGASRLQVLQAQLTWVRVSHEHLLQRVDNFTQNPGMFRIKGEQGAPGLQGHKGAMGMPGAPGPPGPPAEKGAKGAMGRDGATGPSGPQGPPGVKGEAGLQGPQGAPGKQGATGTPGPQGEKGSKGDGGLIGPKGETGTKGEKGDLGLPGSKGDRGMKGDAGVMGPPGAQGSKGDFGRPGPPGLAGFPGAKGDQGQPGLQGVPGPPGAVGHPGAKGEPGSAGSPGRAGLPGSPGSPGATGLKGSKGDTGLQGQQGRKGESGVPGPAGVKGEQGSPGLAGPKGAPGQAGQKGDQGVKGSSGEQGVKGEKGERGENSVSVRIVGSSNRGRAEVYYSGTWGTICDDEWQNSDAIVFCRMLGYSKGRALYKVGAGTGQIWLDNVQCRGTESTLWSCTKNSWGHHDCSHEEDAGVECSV
The test is described as follows: ELISA, FACS and IHC screening.

Test [4] addresses T4, human MARCO expressed on cells (721.221-MARCO, 293T-MARCO) (human, UniProt Q9UEW3 1-520).
T4 construct: also called 721.221 cells expressing MARCO
T4 sequence: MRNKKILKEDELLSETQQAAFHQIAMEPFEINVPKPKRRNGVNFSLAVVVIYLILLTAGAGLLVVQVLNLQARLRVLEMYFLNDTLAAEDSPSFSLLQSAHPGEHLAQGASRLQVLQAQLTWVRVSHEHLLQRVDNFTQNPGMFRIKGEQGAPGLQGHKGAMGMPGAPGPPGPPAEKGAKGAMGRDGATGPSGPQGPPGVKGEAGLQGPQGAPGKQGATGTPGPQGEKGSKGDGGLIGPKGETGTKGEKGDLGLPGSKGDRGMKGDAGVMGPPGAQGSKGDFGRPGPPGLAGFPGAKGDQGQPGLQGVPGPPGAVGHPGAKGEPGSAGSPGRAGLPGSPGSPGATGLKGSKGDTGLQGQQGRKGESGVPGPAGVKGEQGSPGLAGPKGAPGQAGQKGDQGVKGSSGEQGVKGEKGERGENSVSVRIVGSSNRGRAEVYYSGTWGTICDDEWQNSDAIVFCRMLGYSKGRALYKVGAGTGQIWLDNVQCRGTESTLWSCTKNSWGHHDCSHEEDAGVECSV
The test is described as follows: flow cytometry, antibody at 2.5 µg/mL, Alexa647 anti-mouse IgG secondary.

Test [5] deals with T5, CD163L expressed on transfected 293T cells (UniProt Q9NR16 41-1453).
T5 construct: whole, on cells
The test is described as follows: flow cytometry on 293T-CD163L cells, Alexa647 anti-mouse IgG secondary.

The target of test [6] is T6, SCARA5 expressed on transfected 293T cells (UniProt Q6ZMJ2 1-495, limits assumed).
T6 construct: whole, on cells
The test is described as follows: flow cytometry on 293T-SCARA5 cells, Alexa647 anti-mouse IgG secondary.

Test [7] has as its target T7, collagen 17A1 (COL17A1) expressed on 721.221 cells (UniProt Q9UMD9 1-1497, limits assumed).
T7 construct: whole, on cells
T7 sequence (looked up): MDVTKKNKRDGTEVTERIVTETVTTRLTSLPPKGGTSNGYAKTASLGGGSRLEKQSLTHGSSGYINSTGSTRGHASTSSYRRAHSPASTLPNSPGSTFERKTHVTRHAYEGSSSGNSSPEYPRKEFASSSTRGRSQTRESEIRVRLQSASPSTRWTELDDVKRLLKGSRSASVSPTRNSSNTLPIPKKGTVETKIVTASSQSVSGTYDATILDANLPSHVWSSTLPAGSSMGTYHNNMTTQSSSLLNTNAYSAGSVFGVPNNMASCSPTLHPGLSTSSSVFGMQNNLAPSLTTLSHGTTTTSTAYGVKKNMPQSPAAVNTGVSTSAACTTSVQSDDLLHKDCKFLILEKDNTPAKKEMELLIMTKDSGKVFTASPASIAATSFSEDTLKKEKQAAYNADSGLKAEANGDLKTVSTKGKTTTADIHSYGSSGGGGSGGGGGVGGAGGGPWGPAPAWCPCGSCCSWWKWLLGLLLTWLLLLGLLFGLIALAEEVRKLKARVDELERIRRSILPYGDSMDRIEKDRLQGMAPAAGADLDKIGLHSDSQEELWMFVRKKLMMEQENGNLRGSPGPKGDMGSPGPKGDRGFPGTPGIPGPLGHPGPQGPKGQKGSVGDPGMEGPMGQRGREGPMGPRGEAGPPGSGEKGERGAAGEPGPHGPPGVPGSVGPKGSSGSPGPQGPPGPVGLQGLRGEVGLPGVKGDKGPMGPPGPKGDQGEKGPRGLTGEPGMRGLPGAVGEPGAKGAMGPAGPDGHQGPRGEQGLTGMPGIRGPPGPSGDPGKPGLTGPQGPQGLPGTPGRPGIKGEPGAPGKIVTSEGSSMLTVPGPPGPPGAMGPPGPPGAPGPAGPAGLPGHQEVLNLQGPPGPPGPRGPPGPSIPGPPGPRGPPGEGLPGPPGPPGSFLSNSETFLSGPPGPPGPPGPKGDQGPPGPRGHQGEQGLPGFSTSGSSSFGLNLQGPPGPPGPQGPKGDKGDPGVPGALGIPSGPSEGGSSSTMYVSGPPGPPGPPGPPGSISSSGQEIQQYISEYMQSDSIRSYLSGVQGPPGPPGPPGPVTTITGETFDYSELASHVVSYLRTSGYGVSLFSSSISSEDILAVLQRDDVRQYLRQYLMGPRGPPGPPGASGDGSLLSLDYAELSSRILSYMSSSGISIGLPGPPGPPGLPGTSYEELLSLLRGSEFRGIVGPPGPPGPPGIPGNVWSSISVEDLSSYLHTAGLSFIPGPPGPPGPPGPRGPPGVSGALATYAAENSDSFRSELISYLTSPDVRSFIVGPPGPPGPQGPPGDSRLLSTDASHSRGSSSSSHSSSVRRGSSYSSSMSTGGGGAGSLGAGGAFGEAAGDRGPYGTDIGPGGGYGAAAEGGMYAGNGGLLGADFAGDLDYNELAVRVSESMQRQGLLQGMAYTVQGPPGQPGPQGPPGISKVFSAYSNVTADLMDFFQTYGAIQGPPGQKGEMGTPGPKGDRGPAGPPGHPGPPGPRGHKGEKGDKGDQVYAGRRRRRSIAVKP
The test is described as follows: IHC on 721.221 stable cell lines; '-' = no detectable signal.

T5 sequence (Q9NR16 41-1453): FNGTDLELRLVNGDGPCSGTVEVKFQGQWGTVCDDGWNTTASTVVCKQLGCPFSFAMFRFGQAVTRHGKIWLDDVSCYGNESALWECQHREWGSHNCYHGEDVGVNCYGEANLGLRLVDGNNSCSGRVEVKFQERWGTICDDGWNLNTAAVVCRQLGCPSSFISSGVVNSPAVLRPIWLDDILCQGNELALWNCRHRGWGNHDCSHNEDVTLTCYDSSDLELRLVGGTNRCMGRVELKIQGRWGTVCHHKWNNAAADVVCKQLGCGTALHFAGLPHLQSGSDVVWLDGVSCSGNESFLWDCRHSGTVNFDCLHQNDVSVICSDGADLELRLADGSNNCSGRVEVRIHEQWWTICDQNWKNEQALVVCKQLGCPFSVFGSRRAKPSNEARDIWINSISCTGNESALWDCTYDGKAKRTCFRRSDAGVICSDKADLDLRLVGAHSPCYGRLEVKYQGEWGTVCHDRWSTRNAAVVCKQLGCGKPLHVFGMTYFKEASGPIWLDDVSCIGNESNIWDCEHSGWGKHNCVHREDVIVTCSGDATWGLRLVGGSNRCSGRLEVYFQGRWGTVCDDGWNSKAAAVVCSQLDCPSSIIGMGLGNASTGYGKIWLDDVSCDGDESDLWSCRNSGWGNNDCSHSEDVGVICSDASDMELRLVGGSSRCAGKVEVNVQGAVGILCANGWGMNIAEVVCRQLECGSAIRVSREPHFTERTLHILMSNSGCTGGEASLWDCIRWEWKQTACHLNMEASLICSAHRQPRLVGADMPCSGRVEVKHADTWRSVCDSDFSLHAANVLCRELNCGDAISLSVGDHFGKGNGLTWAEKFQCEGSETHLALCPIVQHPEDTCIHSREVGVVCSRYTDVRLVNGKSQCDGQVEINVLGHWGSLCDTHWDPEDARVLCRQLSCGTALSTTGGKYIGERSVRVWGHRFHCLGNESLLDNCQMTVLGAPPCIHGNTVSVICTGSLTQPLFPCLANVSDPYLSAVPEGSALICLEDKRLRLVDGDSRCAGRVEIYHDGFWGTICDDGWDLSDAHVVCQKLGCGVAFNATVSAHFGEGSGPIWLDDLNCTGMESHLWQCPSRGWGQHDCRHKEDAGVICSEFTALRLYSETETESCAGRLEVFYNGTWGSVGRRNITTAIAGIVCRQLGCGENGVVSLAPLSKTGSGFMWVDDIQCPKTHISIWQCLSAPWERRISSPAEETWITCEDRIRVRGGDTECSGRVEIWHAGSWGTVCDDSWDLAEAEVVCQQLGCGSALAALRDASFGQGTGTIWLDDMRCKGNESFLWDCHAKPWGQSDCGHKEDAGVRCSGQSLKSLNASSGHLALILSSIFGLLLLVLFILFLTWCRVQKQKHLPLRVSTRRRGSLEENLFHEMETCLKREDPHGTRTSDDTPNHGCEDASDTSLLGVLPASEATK
T6 sequence (Q6ZMJ2 whole entry): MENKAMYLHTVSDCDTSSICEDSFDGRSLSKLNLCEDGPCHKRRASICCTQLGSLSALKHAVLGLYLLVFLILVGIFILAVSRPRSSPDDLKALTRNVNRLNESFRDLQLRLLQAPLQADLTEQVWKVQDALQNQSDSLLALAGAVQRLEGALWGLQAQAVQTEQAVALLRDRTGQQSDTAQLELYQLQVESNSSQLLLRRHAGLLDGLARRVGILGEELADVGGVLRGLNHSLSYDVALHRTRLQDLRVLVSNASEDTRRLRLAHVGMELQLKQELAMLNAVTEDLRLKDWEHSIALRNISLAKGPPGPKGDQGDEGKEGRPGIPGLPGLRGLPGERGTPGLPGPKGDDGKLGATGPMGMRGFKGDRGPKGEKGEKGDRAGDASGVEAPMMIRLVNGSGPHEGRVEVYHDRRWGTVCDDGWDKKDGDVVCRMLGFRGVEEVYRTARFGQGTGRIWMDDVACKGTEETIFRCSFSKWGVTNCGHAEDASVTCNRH
T2 sequence (Q5TAT6 whole entry): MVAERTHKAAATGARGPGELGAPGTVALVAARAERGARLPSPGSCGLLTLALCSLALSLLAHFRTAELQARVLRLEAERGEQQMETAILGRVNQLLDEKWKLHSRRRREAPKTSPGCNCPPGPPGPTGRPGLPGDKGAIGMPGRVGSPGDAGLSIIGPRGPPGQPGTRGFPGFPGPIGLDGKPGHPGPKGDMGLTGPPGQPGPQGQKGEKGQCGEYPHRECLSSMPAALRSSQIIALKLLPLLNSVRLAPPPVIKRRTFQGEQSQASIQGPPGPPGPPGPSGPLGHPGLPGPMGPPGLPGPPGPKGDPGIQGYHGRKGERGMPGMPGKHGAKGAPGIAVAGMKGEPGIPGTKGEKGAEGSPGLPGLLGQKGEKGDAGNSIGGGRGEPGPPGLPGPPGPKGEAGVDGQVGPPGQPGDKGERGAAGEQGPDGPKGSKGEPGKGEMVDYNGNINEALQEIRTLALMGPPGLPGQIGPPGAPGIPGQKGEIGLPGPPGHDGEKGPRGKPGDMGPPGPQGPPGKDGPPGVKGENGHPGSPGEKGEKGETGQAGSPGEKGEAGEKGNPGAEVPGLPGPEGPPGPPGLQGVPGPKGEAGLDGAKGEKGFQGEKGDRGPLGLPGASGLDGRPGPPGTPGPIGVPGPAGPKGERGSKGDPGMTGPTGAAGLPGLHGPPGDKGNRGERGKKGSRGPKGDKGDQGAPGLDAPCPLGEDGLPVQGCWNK

B1: anti-MARCO antibody 15A3 (antibody, mouse IgG2a, kappa)
heavy: EIQLQQSGPELVKPGASVKVSCKASGYSFTDYNMYWVKQSHGKSLEWIGYIDPYNGGTSYNQKFKGKATLTVDKSSSTAFMHLNSLTSEDSAVYYCARLRSPYDYDRGDYVMDYWGQGTSVTVSSAKTTAPSVYPLAPVCGDTTGSSVTLGCLVKGYFPEPVTLTWNSGSLSSGVHTFPAVLQSDLYTLSSSVTVTSSTWPSQSITCNVAHPASSTKVDKKIEPRGPTIKPCPPCKCPAPNAAGGPSVFIFPPKIKDVLMISLSPIVTCVVVDVSEDDPDVQISWFVNNVEVHTAQTQTHREDYNSTLRVVSALPIQHQDWMSGKEFKCKVNNKDLGAPIERTISKPKGSVRAPQVYVLPPPEEEMTKKQVTLTCMVTDFMPEDIYVEWTNNGKTELNYKNTEPVLDSDGSYFMYSKLRVEKKNWVERNSYSCSVVHEGLHNHHTTKSFSRTPGK
light: DIVLTQSPASLAVSLGQRATISCRASKSVSTSGYTYMHWYQQKPGQPPKLLIYLASNLESGVPARFSGSGSGTDFTLNIHPVEEEDAATYYCQHSRELPLTFGAGTKLELKRADAAPTVSIFPPSSEQLTSGGASVVCFLNNFYPKDINVKWKIDGSERQNGVLNSWTDQDSKDSTYSMSSTLTLTKDEYERHNSYTCEATHKTSTSPIVKSFNRNEC
notes: detected with anti-mouse IgG; copies: 2 + 2
As to B1, the binding result in test [1] is “no binding (tested: 2.5 µg/mL)”; in test [2], “no binding”; in test [3], “binds”; in test [4], “binds”; in test [5] it was “no binding (tested: 2.5 µg/mL)”; in test [6], “no binding (tested: 2.5 µg/mL)”. The binding result in test [7] is reported as “no binding”.

B2: anti-MARCO antibody 10G4 (antibody, mouse IgG2a, kappa)
heavy: QVQLKESGPGLVAPSQSLSITCTVSGFSLSSYPISWVRQPPGKGLEWLGIIWTGGGTNYNSALKSRLSISKDNSKSQVFLKMNSLQTDDTARYYCASQNWDVNSALDYWGQGTSVTVSSAKTTAPSVYPLAPVCGDTTGSSVTLGCLVKGYFPEPVTLTWNSGSLSSGVHTFPAVLQSDLYTLSSSVTVTSSTWPSQSITCNVAHPASSTKVDKKIEPRGPTIKPCPPCKCPAPNAAGGPSVFIFPPKIKDVLMISLSPIVTCVVVDVSEDDPDVQISWFVNNVEVHTAQTQTHREDYNSTLRVVSALPIQHQDWMSGKEFKCKVNNKDLGAPIERTISKPKGSVRAPQVYVLPPPEEEMTKKQVTLTCMVTDFMPEDIYVEWTNNGKTELNYKNTEPVLDSDGSYFMYSKLRVEKKNWVERNSYSCSVVHEGLHNHHTTKSFSRTPGK
light: DIQMTQSPASLSVSVGETVTITCRASENIYSNLAWYQQKQGKSPQLLVYTATNLADGVPSRFSGSGSGTQYSLRINRLQSEDFGNYYCQHFWNAPWTFGGGTKLEIKRADAAPTVSIFPPSSEQLTSGGASVVCFLNNFYPKDINVKWKIDGSERQNGVLNSWTDQDSKDSTYSMSSTLTLTKDEYERHNSYTCEATHKTSTSPIVKSFNRNEC
notes: as for B1
In the case of B2, the binding result was “no binding (tested: 2.5 µg/mL)” in test [1]; “no binding” in test [2]; “binds” in test [3]; “binds” in test [4]; “no binding (tested: 2.5 µg/mL)” in test [5]; “no binding (tested: 2.5 µg/mL)” in test [6]. In test [7], the binding result is on record as “no binding”.

B3: anti-MARCO antibody 6D8 (antibody, mouse IgG2a, kappa)
heavy: QVQLKESGPGLVAPSQSLSIACTVSGFSLTNYAISWVRQPPGKGLEWLGVIWTGGGTNYNSTLKSRLSISKDNSKSQVFLKMNSLQTDDTARYNCARNSGDWYFDVWGPGTTVTVSSAKTTAPSVYPLAPVCGDTTGSSVTLGCLVKGYFPEPVTLTWNSGSLSSGVHTFPAVLQSDLYTLSSSVTVTSSTWPSQSITCNVAHPASSTKVDKKIEPRGPTIKPCPPCKCPAPNAAGGPSVFIFPPKIKDVLMISLSPIVTCVVVDVSEDDPDVQISWFVNNVEVHTAQTQTHREDYNSTLRVVSALPIQHQDWMSGKEFKCKVNNKDLGAPIERTISKPKGSVRAPQVYVLPPPEEEMTKKQVTLTCMVTDFMPEDIYVEWTNNGKTELNYKNTEPVLDSDGSYFMYSKLRVEKKNWVERNSYSCSVVHEGLHNHHTTKSFSRTPGK
light: DIVMSQSPSSLAVSVGEKVTMSCKSSQSLLYSSNQKNYLAWYQQKPGQSPHLLIYWASTRESGVPDRFIGSGSGTDFTLTISSVKAEDLAVYYCQQYYDYPPTFGSGTKLEIKRADAAPTVSIFPPSSEQLTSGGASVVCFLNNFYPKDINVKWKIDGSERQNGVLNSWTDQDSKDSTYSMSSTLTLTKDEYERHNSYTCEATHKTSTSPIVKSFNRNEC
notes: as for B1
As for B3, the binding result is on record as “no binding (tested: 2.5 µg/mL)” in test [1]; “no binding” in test [2]; “binds” in test [3]; “binds” in test [4]; “no binding (tested: 2.5 µg/mL)” in test [5]; “no binding (tested: 2.5 µg/mL)” in test [6]. Moreover, the binding result in test [7] is “no binding”.
